{
  "source": "patent US20230363418A1",
  "about": "“COMPOSITION FOR PREVENTING OR TREATING NEUROPSYCHOLOGIC DISEASE, COMPRISING MANF” (CEFO CO., LTD., priority 2020, published 2023)",
  "key": {"[1]": {"test_system": "primary cultured neural progenitor cells", "experiment": "Immunofluorescence staining of Ki67, Nestin, TuJ1 and NeuN in primary cultured neural progenitor cells", "assay_type": "cell-based, rat", "conditions": "MANF 30 ng/ml, compared to the control group", "experimental": "To investigate whether or not MANF promotes proliferation of neural progenitor cells, the primary cultured neural progenitor cells are treated with MANF, and then proliferating cells were fluorescently stained with Ki67 antibody, neural progenitor cells with Nestin antibody, immature nerve cells with TuJ1, and mature neural cells with NeuN antibody.\nSpecifically, the neural progenitor cells were cultured in the same manner as in Example 1, and after removing all the mediums, they were washed once with PBS. After being fixed for 15 minutes with 4% PFA (paraformaldehyde) in PBS, they were washed twice with PBS again. After washing the cover slip to which the cells were attached with PBST, 0.5% Triton X-100-PBST was added thereto and reacted for 10 minutes. Again, blocking was performed with 2% BSA in PBST or 5% normal serum (Normal donkey serum: Jackson lab, 017-000-121, Normal horse serum: Sigma, H0146); and as primary antibodies, rb-Ki67(Abcam, AB15580, 1:500), mo-NeuN(Millipore, MAB377B, 1:500), mo-Tuj1(Sigma, T8660, 1:3000), mo-Flag(Sigma, F1804, 1:500), and mo-Nestin(Millipore, MAB353, 1:200) were added to 2% BSA in PBS and reacted overnight at 4° C. The next day, they were washed with PBST, and then, as secondary antibodies, mo-Alexa 488(Invitrogen, A21202, 1:700), mo-Cy3(Jackson lab, 715-165-151, 1:500), and rb-Alexa 488(Jackson lab, 711-546-152, 1:700) were added to PBST and reacted at room temperature for 1 hour. Cell nuclei were stained with DAPI (1 µg/mL, Sigma), mounted on slides, scanned with a confocal laser microscope, and photographed. Heo SR et al.(2009) and Han AM t al.(2012) were referred to in the above method.\nIn the case of cell count confirmation and data analysis, the number of cell nuclei labeled with DAPI and the number of cells stained with each differentiation marker were counted, respectively, and the number of each differentiation marker was expressed as a percentage of the number of cell nuclei. In this case, the number of cells that matched exactly in shape and location and had the shape of a nerve cell was counted. For example, in NeuN cell count measurement, the number of cells with a round shape in a nucleus and overlapping staining with DAPI was counted, and nonspecific signals appearing at the edge of the slide were not included. In data analysis, the control group and the experimental group were compared through one-way analysis of variance (ANOVA). The statistical significance of the data was set as p<0.05."}, "[2]": {"test_system": "hippocampal-derived neural stem cells", "experiment": "Immunoblotting of differentiation markers (NeuN, GAD65/67, vGAT) in differentiating neural progenitor cells", "assay_type": "cell-based, rat", "experimental": "To determine the optimal dose of MANF to promote the expression of differentiation markers in neural progenitor cells, immunoblotting experiments were performed using NeuN antibody that labels the nuclei of mature neurons, glutamic acid decarboxylase (GAD65/67) and vesicular […] (vGAT) that label GABAergic nerve cells.\nSpecifically, hippocampal-derived neural stem cells were isolated from the brain of E16 rat embryos. Hippocampal ridges were minced from the embryonic forebrains of E16 rats using sterile fine tweezers under a dissecting microscope. The tissues were collected, mechanically separated using a pipette in Ca^2+/Mg^2+-freeHBSS (Invitrogen) solution, and planted at 19,000 cells/cm^2 in 35 mm culture dishes precoated with 15 µg/ml poly-L-ornithine and 1 µg/ml fibronectin (Sigma). The cells were cultured under the condition of 5% CO2 for 3 days using a serum-free N2 medium (medium for proliferation) supplemented with 10 ng/mL basic fibroblast growth factor(bFGF, Invitrogen). Thereafter, the cells were removed using 0.05% trypsin/EDTA (ethylene-diamine-tetraacetic acid), and neural progenitor cells were planted on a 12 mm glass coverglass (Belco) for immunostaining and on a 100 mm dish for immunoblotting and cultured in N2 medium for proliferation containing bFGF for 1 day. Thereafter, in the proliferation condition, the medium continuously containing bFGF was treated with MANF at the indicated concentration and cultured for 2-3 days; and in the differentiation condition, MANF was added to the medium for differentiation not containing bFGF, which was cultured for 3-7 days. In the control group (vehicle), physiological saline was added in the same volume instead of MANF.\nAfter 3-7 days of differentiation of the cultured neural stem cells, the medium was removed and washed once with PBS (Phosphate-buffered saline). Then, all the cells were lysed using a lysis buffer to which a protease inhibitor was added. The lysate was loaded in a 10% gel in the same volume, then transferred to a PVDF (Polyvinylidene Fluoride) membrane and blocked with 2% BSA in TBST or 5% skim milk in TBST at room temperature for 1 hour. As primary antibodies, rb-GAD65/67 (1:1000), mo-NeuN (1:1000), mo-Vgat (1:700), and mo-actin (1:2000) were used, and the primary antibodies were diluted with 2% BSA in TBST, reacted at 4° C. for 16 hours, and then washed with […]. As secondary antibodies, mo-HRP (1:5000) and rb-HRP (1:5000) were used, and the secondary antibodies were diluted in 2% skim milk in TBST or 2% BSA in TBST, reacted for 1 hour, and then developed on films. As control antibodies, mo-tubulin (Millipore, 05-661, 1:2000) and mo-actin (Santa cruz, SC-47778, 1:2000) were used."}, "[3]": {"conditions": "MANF at 30 ng (tested 10-50 ng/ml), differentiation condition, vs vehicle"}},
  "data": [
    {"molecule": "MANF: one of 16 or more growth factors secreted into nerve stem cells by cerebrovascular cells; amino acid sequence of SEQ ID NO: 1 (protein, MANF) MRRMWATQGLAVALALSVLPGSRALRPGDCEVCISYLGRFYQDLKDRDVTFSPATIENELIKFCREARGKENRLCYYIGATDDAATKIINEVSKPLAHHIPVEKICEKLKKKDSQICELKYDKQIDLSTVDLKKLRVKELKKILDDWGETCKGCAEKSDYIRKINELMPKYAPKAASARTDL", "values": [
      {"measurement": "Ki67-stained proliferating cells", "setting": "[1]", "value": "significantly increased"},
      {"measurement": "immature neural cells (TuJ1)", "setting": "[1]", "value": "also increased, but there was no statistical significance"},
      {"measurement": "mature neural cells (NeuN)", "setting": "[1]", "value": "also increased, but there was no statistical significance"},
      {"measurement": "nestin-stained neural progenitor cells", "setting": "[1]", "value": "significantly increased"},
      {"measurement": "NeuN protein increase (immunoblotting)", "setting": "[2]; [3]", "value": 1.6, "unit": "fold"},
      {"measurement": "amount of GAD65/67 protein increase (immunoblotting)", "setting": "[2]; [3]", "value": "about 2.5 fold"},
      {"measurement": "amount of vGAT protein increase (immunoblotting)", "setting": "[2]; [3]", "value": "about 2.5 fold"},
      {"measurement": "optimal dose of MANF (NeuN, GAD65/67 and vGAT protein all increased the most)", "setting": "[2]; tested 10-50 ng/ml", "value": 30, "unit": "ng/mL"}
    ]}
  ]
}
